In publication PMC12622350 one finds binding data, which are given here for three sequences.

The target in this data set is T1, NikR (Helicobacter pylori 26695) (UniProt O25896).
T1 sequence: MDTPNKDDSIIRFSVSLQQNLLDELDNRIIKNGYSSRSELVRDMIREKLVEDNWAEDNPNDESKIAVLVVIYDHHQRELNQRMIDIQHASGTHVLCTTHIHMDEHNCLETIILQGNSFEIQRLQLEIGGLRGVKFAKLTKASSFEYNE
The data set is described as follows: EMSA. On the technique in general: In EMSA bound probe runs differently from free probe, usually more slowly.
Turning to “TTGGGTTGATTTAACTCAAGCAAATTTTCTTCAATCCTAACAAATTTGGCTGCAAATTAAAAAATTTAAGCTTTTTTCTTTTTTTTTGATTTAATACTAGGTATAATTTTAATTCCACCT (double strand) [Probe-flgR 1]”, the binding result is recorded as “binds”.

“TAGCAATGTTTTGATTTACTAAGATTAACAGAAGCGTTCATTAACTAATTATTATTTAAAATGAATTAGTGTTATATCTTTGAAGCGCTATAAAATCGTTATTAGAAGTGCGTTTAATAC (double strand) [OPhp0073]”: the binding result was “binds”.

As for “TAAGCTTTTTTCTTTTTTTTTGATTTAATACTAGGTATAATTTTAATTCCACCTAACAAGGAAAAGCTATGAAAGTAACACAAGGCATTGCTAACGACTTTTTTGCCCTAACAAACACGA (double strand) [Probe-flgR 2]”, the binding result was “binds”.
